Reference: paper PMC8288147

Molecular target: Hepatitis B Surface Antigen (HBsAg) SpyCatcher nanoparticles (Hepatitis B virus)
Assay: covalent SpyTag/SpyCatcher conjugation shown by reduced SDS-PAGE

## RBD-SpyTag (SARS-CoV-2 receptor binding domain fused to the SpyTag peptide) (from UniProt P0DTC2) (domain or fragment)
  fraction unconjugated: < 20%
